Laboratory results taken from paper PMC3306459 (Journal of Inorganic Biochemistry, 2011).
Residue numbers refer to the chain shown, from its start. In names and notes the source's numbering stands.

T1: G450A iNOS full length protein (mouse, UniProt P29477 1-1144, G450A)
T1 sequence (looked up): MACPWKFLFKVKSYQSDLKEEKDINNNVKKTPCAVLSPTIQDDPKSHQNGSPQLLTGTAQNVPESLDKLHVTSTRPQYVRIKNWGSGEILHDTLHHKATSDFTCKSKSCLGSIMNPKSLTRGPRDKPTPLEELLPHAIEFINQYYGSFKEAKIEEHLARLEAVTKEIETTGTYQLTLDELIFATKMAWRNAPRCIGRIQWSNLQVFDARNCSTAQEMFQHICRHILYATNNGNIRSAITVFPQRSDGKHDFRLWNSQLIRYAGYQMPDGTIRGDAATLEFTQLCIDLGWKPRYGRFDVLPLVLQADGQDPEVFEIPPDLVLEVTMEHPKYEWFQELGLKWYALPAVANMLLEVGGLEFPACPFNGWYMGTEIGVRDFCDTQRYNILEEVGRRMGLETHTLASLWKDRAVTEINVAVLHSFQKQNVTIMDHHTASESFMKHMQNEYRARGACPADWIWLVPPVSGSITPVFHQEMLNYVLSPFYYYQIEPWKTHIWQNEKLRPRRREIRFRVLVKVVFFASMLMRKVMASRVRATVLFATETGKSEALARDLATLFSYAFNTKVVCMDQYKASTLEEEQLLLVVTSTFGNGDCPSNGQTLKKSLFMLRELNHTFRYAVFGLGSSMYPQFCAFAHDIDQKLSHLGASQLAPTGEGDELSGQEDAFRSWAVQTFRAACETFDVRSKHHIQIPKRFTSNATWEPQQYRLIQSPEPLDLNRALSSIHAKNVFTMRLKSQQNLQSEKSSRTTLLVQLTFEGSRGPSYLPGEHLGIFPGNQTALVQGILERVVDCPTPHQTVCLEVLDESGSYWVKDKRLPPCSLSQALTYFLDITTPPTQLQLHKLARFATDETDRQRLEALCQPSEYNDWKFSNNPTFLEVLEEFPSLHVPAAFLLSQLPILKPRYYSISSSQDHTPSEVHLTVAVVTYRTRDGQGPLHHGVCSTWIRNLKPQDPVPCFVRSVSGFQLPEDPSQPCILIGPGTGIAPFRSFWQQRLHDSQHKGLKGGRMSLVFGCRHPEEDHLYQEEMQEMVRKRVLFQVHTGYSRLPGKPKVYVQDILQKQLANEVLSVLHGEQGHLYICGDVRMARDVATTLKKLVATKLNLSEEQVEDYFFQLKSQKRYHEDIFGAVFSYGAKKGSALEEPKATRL

B1: wild type Δ65iNOSoxy domain (oxygenase domain of inducible nitric oxide synthase, amino acid 66–498) (domain or fragment, mouse, UniProt P29477 66-498, looked up)
chain: LDKLHVTSTRPQYVRIKNWGSGEILHDTLHHKATSDFTCKSKSCLGSIMNPKSLTRGPRDKPTPLEELLPHAIEFINQYYGSFKEAKIEEHLARLEAVTKEIETTGTYQLTLDELIFATKMAWRNAPRCIGRIQWSNLQVFDARNCSTAQEMFQHICRHILYATNNGNIRSAITVFPQRSDGKHDFRLWNSQLIRYAGYQMPDGTIRGDAATLEFTQLCIDLGWKPRYGRFDVLPLVLQADGQDPEVFEIPPDLVLEVTMEHPKYEWFQELGLKWYALPAVANMLLEVGGLEFPACPFNGWYMGTEIGVRDFCDTQRYNILEEVGRRMGLETHTLASLWKDRAVTEINVAVLHSFQKQNVTIMDHHTASESFMKHMQNEYRARGGCPADWIWLVPPVSGSITPVFHQEMLNYVLSPFYYYQIEPWKTHIWQNE
B2: R375N Δ65iNOSoxy (amino acid 66–498) (domain or fragment, mouse, UniProt P29477 66-498, looked up)
chain: B1 chain with R310N
B3: R375D Δ65iNOSoxy (amino acid 66–498) (domain or fragment, mouse, UniProt P29477 66-498, looked up)
chain: B1 chain with R310D
B4: R375K Δ65iNOSoxy (amino acid 66–498) (domain or fragment, mouse, UniProt P29477 66-498, looked up)
chain: B1 chain with R310K

target: T1, G450A iNOS full length protein; assay: cell-based or functional assay

NO2^- production of the heterodimer, Griess assay [µM] | NO synthesis (min^-1) of the heterodimer, oxyhemoglobin assay [min⁻¹] | Binder
30.3 | 51.8 | B1
6.3 | 8.6 | B2
1.8 | 1.7 | B3
7.8 | 17.6 | B4

Target: the molecule itself
Assay: SEC

Binder | dimer content [%]
B2 | 38
B3 | 30
B4 | 100
